# Assay results published in patent US20070128192A1 (AstraZeneca / MedImmune, published 2007).
# Positions count from the first letter of the chain named. Where two headings read alike, the source gives them in different places.
# T1: non-human primate IL-13 (rhesus and cynomolgus, identical), baculovirus expressed, carboxyl terminus affinity … (rhesus and cynomolgus monkey, UniProt Q5I6E4 21-132 (Macaca thibetana entry))
# T1 chain: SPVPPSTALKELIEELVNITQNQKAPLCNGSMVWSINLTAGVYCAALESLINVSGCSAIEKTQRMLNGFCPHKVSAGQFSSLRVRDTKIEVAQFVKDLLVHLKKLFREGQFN
# T2: murine IL-13 (mouse, UniProt P20109 21-131, limits assumed)
# T2 sequence (looked up): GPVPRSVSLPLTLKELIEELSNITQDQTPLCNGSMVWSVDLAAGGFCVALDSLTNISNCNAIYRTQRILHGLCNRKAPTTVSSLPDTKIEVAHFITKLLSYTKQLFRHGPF
# B1: BAK278D6 scFv (scFv, V domains shown)
# VH: EVQLVQSGAEVKKPGASVKVSCKASGYTFRNYGLSWVRQAPGQGLEWMGWISANNGDTNYGQEFQGRITMTTETSTNTAHMELRSLRSDDTAVYYCVRDSSSNWARWFFDLWGKGTMVTVSS
# VL: SYVLTQPPSVSVAPGQTARIPCGGNNIGSKLVHWYQQKPGQAPVLVVYDDGDRPSGIPERFSGSNSGNTATLTISRIDAGDEADYYCQVWDTGSDPVVFGGGTKLTVL
# B2: BAK502G9 IgG4 (antibody, V domains shown)
# VH: B1 VH with E1Q, R30T, I68V, E73D, N77S, H80Y, V97A, N103S, K114R, M117L
# VL: B1 VL with Q16K, P21T, N26I, V47I, I77V, D78E
# B3: BAK1167F2 IgG4 (antibody, V domains shown)
# VH: QVQLVQSGAEVKKPGASVKVSCKASGYTFEQTGVSWVRQAPGQGLEWMGWISANNGDTNYGQEFQGRVTMTTDTSTSTAYMELRSLRSDDTAVYYCARDSSSSWARWFFDLWGRGTLVTVSS
# VL: B1 VL with Q16K, P21T, N26I, V47I, I77V, D78E
# B4: BAK1183H4 IgG4 (antibody, V domains shown)
# VH: B3 VH with E30T, Q31N, T32Y, V34L, S52N, A53Y, N54D, N55G, D57N, N59Q
# VL: B1 VL with Q16K, P21T, N26I, V47I, I77V, D78E
# B5: BAK209B11 scFv (scFv, V domains shown)
# VH: VQLQESGGGGLVQPGGSLRLSCAASGFTFSSYGMSWVRQAPGKGLEWVSSISASGDSTFYADSVKGRFTISRDNNKNMVFLQVNSLRADDTAVYFCAKDWSQWLVGDAFDVWGRGTTVTVSS
# VL: DIQLTQSPSTLSASVGDRVTITCRASQSVSLWVAWYQQRPGKAPKLLIYDGSTLQSGVPARFSGSGSGTEFTLTISSLQPDDFATYYCQQYKTFSTFGQGTKVEIK
# B6: BAK615E3 scFv (scFv, V domains shown)
# VH: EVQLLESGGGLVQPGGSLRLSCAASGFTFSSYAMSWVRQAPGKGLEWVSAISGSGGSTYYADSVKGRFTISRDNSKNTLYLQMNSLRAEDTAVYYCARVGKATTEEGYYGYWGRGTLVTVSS
# VL: NFMLTQPHSVSESPGKTVTISCTRSSGSIASNYVQWYQQRPGSAPTTVIYDDNQRPSGVPDRFSGSIDSSSNSASLTISGLKTEDEADYYCQSYDSNNDVFGGGTKVTVL
# B7: BAK209B11 human IgG4 (antibody, V domains shown)
# VH: B5 VH
# VL: DIQLTQSPSTLSASVGDRVTITCRASQSVSLWVAWYQQRPGKAPKLLIYDGSTLQSGVPARFSGSGSGTEFTLTISSLQPDDFATYYCQQYKTFSTFGQGTKVEIKR
# B8: BAK278D6 IgG (antibody, V domains shown)
# VH: B1 VH
# VL: B1 VL
# Legend:
# [1] = target: T1, non-human primate IL-13 (rhesus and …); test: cell-based or functional assay
# [2] = target: T3, wild type human IL-13, baculovirus expressed, carboxyl terminus affinity tag (human, UniProt P35225 33-146); test: cell-based or functional assay
# human IL-13 [3] = target: T4, human IL-13 (human, UniProt P35225 15-146); test: cell-based or functional assay
# [4] = target: native (naturally occurring) human IL-13 released from HDLM-2 cells (human, UniProt P35225 15-146); test: cell-based or functional assay
# [5] = target: human IL-13 variant (Q130R), baculovirus expressed, carboxyl terminus affinity tag (human, UniProt P35225 33-146); test: cell-based or functional assay
# [6] = target: T1, non-human primate IL-13 (rhesus and …); test: cell-based or functional assay
# [7] = target: T3, wild type human IL-13, baculovirus …; test: cell-based or functional assay; remark: listed apart in the source
# murine IL-13 [8] = target: T2, murine IL-13; test: cell-based or functional assay
# human IL-13 [9] = target: T4, human IL-13; test: cell-based or functional assay; remark: listed apart in the source
# murine IL-13 [10] = target: T2, murine IL-13; test: BIAcore, IgG4 coupled to CM5 chip, murine IL-13 passed over
# human IL-13 [11] = target: T4, human IL-13; test: BIAcore, IgG coupled to CM5 chip, IL-13 50 nM to 0.78 nM passed over
# Chain of human IL-13 variant (Q130R), baculovirus expressed, carboxyl terminus affinity tag (P35225 33-146 limits assumed, stated change not applied, form in doubt): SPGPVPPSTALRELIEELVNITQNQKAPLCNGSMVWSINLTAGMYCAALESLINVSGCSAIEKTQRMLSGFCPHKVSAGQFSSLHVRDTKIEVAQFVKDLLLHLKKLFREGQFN
# T4 sequence (P35225 other isoform, or with tags, fused parts or gaps): as the sequence (P35225 33-146 limits assumed, stated change not applied, form in doubt) above, with Q112R counted along it
# Chain of native (naturally occurring) human IL-13 released from HDLM-2 cells (P35225 other isoform, or with tags, fused parts or gaps): as the sequence (P35225 33-146 limits assumed, stated change not applied, form in doubt) above, with Q112R counted along it
# T3 sequence (P35225 other isoform, or with tags, fused parts or gaps): as the sequence (P35225 33-146 limits assumed, stated change not applied, form in doubt) above, with Q112R counted along it
binder,measurement,setting,value
B1,"IC50 (read off the curve); TF-1 cell proliferation, 50 ng/ml non-human primate IL-13",[1],~90 nM
same,"IC50 (read off the curve); TF-1 cell proliferation, 25 ng/ml human IL-13",[2],~70 nM
same,"IC50, TF-1 cell proliferation assay",human IL-13 [3],44 nM
B2,"IC50, HDLM-2 cell proliferation assay",[4],4.6 nM
same,"IC50, TF-1 cell proliferation assay",[5],1.9 nM
same,"IC50, TF-1 cell proliferation assay",[6],2 nM
B3,"IC50, HDLM-2 cell proliferation assay",[4],1.1 nM
same,"IC50, TF-1 cell proliferation assay",[5],1.1 nM
same,"IC50, TF-1 cell proliferation assay",[7],1 nM
B4,"IC50, HDLM-2 cell proliferation assay",[4],3.5 nM
same,"IC50, TF-1 cell proliferation assay",[5],1 nM
same,"IC50, TF-1 cell proliferation assay",[7],0.9 nM
B5,"IC50, TF-1 cell proliferation assay",murine IL-13 [8],185 nM
B6,"IC50, TF-1 cell proliferation assay",human IL-13 [9],3 nM
B7,"IC50, B9 cell proliferation assay",murine IL-13 [8],0.776 nM
same,Kd,murine IL-13 [10],5.1 nM
same,koff,murine IL-13 [10],0.0198 s⁻¹
same,kon,murine IL-13 [10],3.9e+06 M⁻¹ s⁻¹
B8,Kd,human IL-13 [11],13.5 nM
same,koff,human IL-13 [11],0.00741 s⁻¹
same,kon,human IL-13 [11],549000 M⁻¹ s⁻¹
